Reference: paper PMC8628696, “Stable DNA Aptamer–Metal–Organic Framework as Horseradish Peroxidase Mimic for Ultra-Sensitive Detection of Carcinoembryonic Antigen in Serum”

Target: carcinoembryonic antigen (CEA) (human, UniProt P06731 35-685)
Assay: colorimetric antibody-aptamer sandwich assay; MOF-grafted tetrahedron 25 ug/mL; CEA 20 ng/mL; antibody-captured CEA; Colorimetric sandwich assay: TMB 2 mM, H2O2 0.2 M, detection time 20 min; binding buffer, pH and temperature not given in the material (storage in PBS at 37 C)
Conditions: protein: commercial; label: grafted on PCN-222(Fe) MOF via 5' phosphates (peroxidase mimic); DNA tetrahedron of 4 strands with single-stranded 5' aptamer extension on strand D

Chain of carcinoembryonic antigen (CEA) (P06731 35-685): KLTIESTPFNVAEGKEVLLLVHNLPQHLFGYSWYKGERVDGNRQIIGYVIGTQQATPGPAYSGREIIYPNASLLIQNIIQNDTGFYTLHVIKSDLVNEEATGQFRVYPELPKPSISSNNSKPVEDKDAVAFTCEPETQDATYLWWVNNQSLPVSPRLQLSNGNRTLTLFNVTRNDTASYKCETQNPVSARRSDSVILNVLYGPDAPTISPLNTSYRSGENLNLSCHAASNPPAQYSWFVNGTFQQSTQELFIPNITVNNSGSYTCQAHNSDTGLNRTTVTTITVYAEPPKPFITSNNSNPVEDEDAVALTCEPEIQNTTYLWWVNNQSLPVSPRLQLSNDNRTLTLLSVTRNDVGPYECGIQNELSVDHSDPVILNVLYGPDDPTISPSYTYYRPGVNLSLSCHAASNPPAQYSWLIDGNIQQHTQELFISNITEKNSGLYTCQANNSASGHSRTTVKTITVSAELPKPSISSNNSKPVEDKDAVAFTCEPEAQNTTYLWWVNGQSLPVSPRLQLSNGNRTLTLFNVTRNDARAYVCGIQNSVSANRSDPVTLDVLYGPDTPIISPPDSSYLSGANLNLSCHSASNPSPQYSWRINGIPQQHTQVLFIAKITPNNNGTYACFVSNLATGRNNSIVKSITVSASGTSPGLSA

B1: CEAapt-TDN (strands D+A+B+C) on PCN-222(Fe) MOF (structured_DNA)
DNA 1: ATACCAGCTTATTCAATTTTTTTTACATTCCTAAGTCTGAAACATTACAGCTTGCTACACGAGAAGAGCCGCCATAGTA
DNA 2: TATCACCAGGCAGTTGACAGTGTAGCAAGCTGTAATAGATGCGAGGGTCCAATAC
DNA 3: TCAACTGCCTGGTGATAAAACGACACTACGTGGGAATCTACTATGGCGGCTCTTC
DNA 4: TTCAGACTTAGGAATGTGCTTCCCACGTAGTGTCGTTTGTATTGGACCCTCGCAT
modifications: 5' phosphate on strands A, B and C
Does B1 bind?
Result: binds
